Primed or numbered codes have the meaning given here. * marks the point of attachment. Biotin = O=C1N[C@H]2[C@H](CS[C@H]2CCCCC(=O)*)N1; FITC′ = fluorescein-isothiocyanate; Ahx = NCCCCCC(=O)O

Test [1] addresses T1, CBP80/CBP20 complex (human, UniProt Q09161 20-790; P52298 1-156, limits assumed).
T1 construct: Used in the fluorescence polarization assays; In the crystal it also carried the cap analogue (m7GpppG / m7GpppA); also called CBC complex; CBC
T1 sequence (looked up) 1: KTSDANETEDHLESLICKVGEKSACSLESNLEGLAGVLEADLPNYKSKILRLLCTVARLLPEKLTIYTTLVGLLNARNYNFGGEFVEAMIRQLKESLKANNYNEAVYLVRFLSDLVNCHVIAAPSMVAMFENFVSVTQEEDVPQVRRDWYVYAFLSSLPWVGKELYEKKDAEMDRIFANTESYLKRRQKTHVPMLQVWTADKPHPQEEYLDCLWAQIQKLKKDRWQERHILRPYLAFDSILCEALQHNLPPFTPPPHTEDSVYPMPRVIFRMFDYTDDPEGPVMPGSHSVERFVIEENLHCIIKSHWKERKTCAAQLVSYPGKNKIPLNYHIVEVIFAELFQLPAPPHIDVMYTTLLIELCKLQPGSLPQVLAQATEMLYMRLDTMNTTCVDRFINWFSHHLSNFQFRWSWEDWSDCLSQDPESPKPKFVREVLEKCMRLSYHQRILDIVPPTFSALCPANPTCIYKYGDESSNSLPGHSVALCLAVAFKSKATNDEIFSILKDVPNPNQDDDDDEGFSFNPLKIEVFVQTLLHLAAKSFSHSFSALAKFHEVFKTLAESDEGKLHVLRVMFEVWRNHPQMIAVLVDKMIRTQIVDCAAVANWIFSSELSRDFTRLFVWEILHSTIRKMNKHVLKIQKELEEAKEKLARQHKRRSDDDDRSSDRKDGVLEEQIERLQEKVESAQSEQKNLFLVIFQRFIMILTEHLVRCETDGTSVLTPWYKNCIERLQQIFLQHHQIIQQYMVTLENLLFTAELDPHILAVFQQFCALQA
T1 sequence (looked up) 2: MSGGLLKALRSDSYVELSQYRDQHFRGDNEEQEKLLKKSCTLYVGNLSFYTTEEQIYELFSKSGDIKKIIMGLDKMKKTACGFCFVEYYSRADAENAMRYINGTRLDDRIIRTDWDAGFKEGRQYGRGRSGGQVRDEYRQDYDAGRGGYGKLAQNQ
Kind of test: FP competition assay, alanine scan. As to the method:
To examine the tolerance of this compound to sequence modification, an alanine-scanning library was synthesized. This library of PGC1β mimics consisted of 11 linear peptides (PGC1β-2A through PGC1β-12A; Table 3), in which each amino acid residue of the parent PGC1β-wt peptide was replaced with alanine (or with glycine, when the parent residue is alanine). The peptides were tested for their ability to inhibit the CBC-PGC1β interaction using the aforementioned fluorescence polarization-based competition assay. […] These compounds include PGC1β mimics containing non-canonical amino acids such as 2-aminoisobutyric acid (Aib) and […]-crotonyl-2,4-diaminobutyric acid (CrtDab). Aib is an α,α-disubstituted amino acid which is well known for its ability to stabilize α-helical peptide structures as well as increase peptide stability against proteolysis.
(§1) IC₅₀ values were determined by adapting the fluorescence polarization assay described above to a competition format. 1 μM of the FITC-labeled PGC1β peptide (FITC-Ahx-[…]-NH₂) was incubated with 30 μM of the CBP80-CBP20 complex in HEPES Buffer (10 mM HEPES [pH 7.5], 50 mM NaCl and 5 mM 2-mercaptoethanol).

Test [2] deals with T1, CBP80/CBP20 complex. Nature of the test: FP competition assay; 1 µM FITC-Ahx-…-NH2 as competitor, 30 µM CBP80/CBP20 complex. As for the experimental part:
(§2) The relative activity of the PGC1β mimics toward disrupting the interaction between CBC and the fluorescein-conjugated PGC1β-derived peptide was measured in a competition assay. Briefly, a fixed amount of CBC and fluorescein-conjugated PGC1β-derived peptide are incubated with increasing amounts of the PGC1β mimic (FIG. 11A). From the resulting dose-dependent inhibition curves, the in vitro CBC inhibitory activity of the PGC1β mimic compound is measured based on their respective half-maximal inhibitory concentration (IC₅₀) (FIG. 5B). Using this assay, various PGC1β mimics were evaluated for their relative ability to target CBC and disrupt its binding interaction with PGC1β. […] Short peptides derived from the C-terminal domain of PGC1β and PRC proteins, two other members of the PGC1 family of transcriptional coactivators, were also to bind CBC and inhibits its interaction with the fluorescein-labeled PGC1β peptide with IC₅₀ values in the low micromolar range.
^aAc = acetyl; Biot = biotin; Ahx = 6-aminohexanoic acid; Aib = 2-aminoisobutyric acid; CrtDab = N^γ-crotonyl-2,4-diaminobutyric acid. C-terminal ‘-NH₂’ refers to amidated C-terminal end of the peptide. ^bIC₅₀ was determined using fluorescence polarization based competition assay in the presence of 1 μM of FITC-labeled PGC1β (FITC-Ahx-[…]-NH₂, where FITC is fluorescein-isothiocyanate) and 30 μM of the CBP80/CBP20 complex in HEPES buffer (10 mM HEPES, 50 mM NaCl, 5 mM BME, pH 7.5).
as §1

For test [3], the target named is T1, CBP80/CBP20 complex. Kind of test: FP competition assay; FITC-labeled PGC1β peptide as competitor. As to the method:
as §2
IC₅₀ values were determined by adapting the fluorescence polarization assay described above to a competition format. […] Half-maximal inhibitory concentration (IC₅₀) values were calculated from the resulting inhibition curves as given by dose-dependent decrease in the fluorescence polarization signal. […]

For test [4], the target named is T1, CBP80/CBP20 complex. Nature of the test: fluorescence polarization; 1 µM FITC peptide titrated with CBC complex (1-80 µM), 1:1 model. As for the experimental part:
In order to develop a first set of PGC1β mimics, a series of linear peptides encompassing the CBP80-binding domain of PGC1β were designed and synthesized (Table 3). The ability of these peptides to bind to CBP80 in complex with CBP20 (also referred herein as ‘CBC complex’ or simply ‘CBC’) was assessed using a fluorescence polarization assay in the presence of fluorescein-conjugated PGC1β-derived peptide (FITC-Ahx-[…]-NH₂ (SEQ ID NO:XX), where FITC is fluorescein-isothiocyanate and Ahx is 6-aminohexanoic acid).
The assay was performed in a 15-μl scale in a low-volume 384-well black plate on a Tecan M1000 Plate Reader using 470/20 nm excitation and 520/20 nm emission filters. All proteins and peptides were dissolved and diluted in HEPES buffer (50 mM NaCl, 10 mM HEPES […]). Fluorescently labelled PGC1β peptide (FITC-Ahx-[…]-NH₂) was used at 1 μM final concentration, and fluorescence polarization data were recorded at increasing concentration of the CBC complex (1-80 μM) after a 10-min incubation. The resulting concentration-dependent FP curve was fit to a 1:1 binding model to yield dissociation constant (KD) values. Measurements were performed at least in duplicates.

Test [5] deals with T2, FLAG-PGC1α WT (human, UniProt Q9UBK2 1-798).
T2 construct: also called FLAG-tagged human (h) PGC1α wild-type; FLAG-PCG1α WT; not shown: FLAG tag
T2 sequence (looked up): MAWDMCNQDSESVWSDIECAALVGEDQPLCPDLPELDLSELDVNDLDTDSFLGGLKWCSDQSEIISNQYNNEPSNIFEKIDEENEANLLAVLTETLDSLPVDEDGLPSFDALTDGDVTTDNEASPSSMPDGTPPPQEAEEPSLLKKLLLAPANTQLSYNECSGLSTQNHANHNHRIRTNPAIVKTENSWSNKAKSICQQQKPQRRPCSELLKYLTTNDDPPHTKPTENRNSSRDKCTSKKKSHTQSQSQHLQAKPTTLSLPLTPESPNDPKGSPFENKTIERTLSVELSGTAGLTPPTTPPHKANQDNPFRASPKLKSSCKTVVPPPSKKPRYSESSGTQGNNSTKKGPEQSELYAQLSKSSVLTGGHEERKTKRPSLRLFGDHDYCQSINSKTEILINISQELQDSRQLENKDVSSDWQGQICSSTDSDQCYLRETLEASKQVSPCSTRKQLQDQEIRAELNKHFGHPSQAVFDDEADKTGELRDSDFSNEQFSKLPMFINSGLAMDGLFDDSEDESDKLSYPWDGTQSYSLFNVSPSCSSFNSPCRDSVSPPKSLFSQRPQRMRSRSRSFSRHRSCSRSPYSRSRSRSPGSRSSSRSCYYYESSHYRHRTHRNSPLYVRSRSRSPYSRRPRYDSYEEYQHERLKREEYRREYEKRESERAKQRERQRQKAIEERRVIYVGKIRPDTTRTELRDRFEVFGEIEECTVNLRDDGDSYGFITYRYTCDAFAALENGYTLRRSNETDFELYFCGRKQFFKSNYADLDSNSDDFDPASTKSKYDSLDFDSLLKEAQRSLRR
Kind of test: anti-FLAG IP from C2C12 knock-down cells, western blot. (In general: Immunoblotting shows a protein as a band on a membrane.)

Consider Ac-MDFDSLLKAAQQS-NH2 [PGC1β-9A (Ac-MDFDSLLKAAQQS-NH2)], for which the “fold improvement of inhibitory activity against PGC1β-wt” value in test [1] was at most 2 fold. Moreover, the IC50 in test [2] is 33 µM.

B1: Biot-PGC1β (Biot-Ahx-SGG-AMDFDSLLKEAQQSLH-NH2) (peptide)
peptide: {Biotin-Ahx}-SGGAMDFDSLLKEAQQSLH-NH2
SMILES: CSCC[C@H](NC(=O)[C@H](C)NC(=O)CNC(=O)CNC(=O)[C@H](CO)NC(=O)CCCCCNC(=O)CCCC[C@@H]1SC[C@@H]2NC(=O)N[C@@H]21)C(=O)N[C@@H](CC(=O)O)C(=O)N[C@@H](Cc1ccccc1)C(=O)N[C@@H](CC(=O)O)C(=O)N[C@@H](CO)C(=O)N[C@@H](CC(C)C)C(=O)N[C@@H](CC(C)C)C(=O)N[C@@H](CCCCN)C(=O)N[C@@H](CCC(=O)O)C(=O)N[C@@H](C)C(=O)N[C@@H](CCC(N)=O)C(=O)N[C@@H](CCC(N)=O)C(=O)N[C@@H](CO)C(=O)N[C@@H](CC(C)C)C(=O)N[C@@H](Cc1c[nH]cn1)C(N)=O
notes: also called Biot-PGC1β peptide; biotinylated version of the PGC1β peptide
With B1, the figures for the IC50 in test [3] and in test [2] were 31 µM and 35 µM, respectively.

B2: FITC-Ahx-AMDFDSLLKEAQQSLH-NH2 (peptide)
peptide: {FITC′-Ahx}-AMDFDSLLKEAQQSLH-NH2
notes: Tracer of the FP assays; also called fluorescein-conjugated PGC1β-derived peptide; FITC-labeled PGC1β peptide
In the case of B2, binding in test [4] was put at a Kd of 47 µM.

B3: endogenous CBP80 of mouse C2C12 myoblasts (other, UniProt Q3UYV9 1-790, looked up)
chain: MSRRRHSYENDGGQPHKRRKTSDANETEDHLESLICKVGEKSACSLESNLEGLAGVLEADLPNYKSKILRLLCTVARLLPEKLTIYTTLVGLLNARNYNFGGEFVEAMIRQLKESLKANNYNEAVYLVRFLSDLVNCHVIAAPSMVAMFENFVSVTQEEDVPQVRRDWYVYAFLSSLPWVGKELYEKKDAEMDRIFSTTESYLKRRQKTHVPMLQVWTADKPHPQEEYLDCLWAQIQKLKKDRWQERHILRPYLAFDSILCEALQHNLPPFTPPPHTEDSVYPMPRVIFRMFDYTDDPEGPVMPGSHSVERFVIEENLHCIIKSYWKERKTCAAQLVSYPGKNKIPLNYHIVEVIFAELFQLPAPPHIDVMYTTLLIELCKLQPGSLPQVLAQATEMLYMRLDTMSTTCVDRFINWFSHHLSNFQFRWSWEDWSDCLTQDLESPKPKFVREVLEKCMRLSYHQHILDIVPPTFSALCPANPTCIYKYGDESSNSLPGHSVALCLSVAFKSKATNDEIFSILKDVPNPNQVDDDDEGFRFNPLKIEVFVQTLLHLAAKSFSHSFSALAKFHEVFKTLAESDKGKLHVLRVMFEVWRNHPQMIAVLVDKMIRTQIVDCAAVANWIFSSELSRDFTRLFVWEILHSTIRKMNKHVLKIQKELEEAKEKLARQHKRRSDDDDRSSDRKDGALEEQIERLQEKVEAAQSEQKNLFLVIFQRFIMILTEHLVRCETDGTSILTPWYKNCIERLQQIFLQHHQTIQQYMVTLENLLFTAELDPHILAVFQQFCALQA
Regarding B3, the binding result in test [5] is recorded as “binds”.

By IC50 is commonly meant the midpoint of a concentration-inhibition curve. A low value points to greater potency in that assay. As usually defined, the Kd is the concentration at which binding is half-saturated. High values mean lower affinity, low ones higher affinity.

Source of the values: patent US20180362587A1, “Compositions and Methods for Inhibiting CBP80 Binding to PGC1 Family of Co-Activators” (University of Rochester, priority 2015, published 2018).
